The term Kd denotes the concentration at which binding is half-saturated. Lower therefore signals a tighter complex. As a reminder, the koff is the rate constant with which the complex falls apart. The term kon denotes the rate constant with which the complex forms. A lower kon goes with slower complex formation.

For experiment [1], the target named is T1, pertussis toxin (PT) (Bordetella pertussis, UniProt P04977 35-269; P04978 28-226; P04979 29-227; P0A3R5 43-152; P04981 35-133). Put plainly: cell-based or functional assay.
Experiment [2] deals with T1, pertussis toxin (PT). As to the kind of experiment: BLI, antibody on AHC biosensor, PTpuri 6.25-100 nM in solution. (BLI is a label-free optical method that tracks binding on a fibre tip over time.)
For experiment [3], the target named is T1, pertussis toxin (PT). Put plainly: BLI in-tandem binning on PT-biotin; competitor (Ab1, bound first): 1B7.
Experiment [4] deals with T1, pertussis toxin (PT). As to the kind of experiment: BLI in-tandem binning on PT-biotin; competitor (Ab1, bound first): 11E6.

B1: 1B7 (antibody, V domains shown)
VH: QVQLQQPGSELVRPGASVKLSCKASGYKFTSYWMHWVKQRPGQGLEWIGNIFPGSGSTNYDEKFNSKATLTVDTSSNTAYMQLSSLTSEDSAVYYCTRWLSGAYFDYWGQGTTLTVSS
VL: QIVLTQSPALMSASPGEKVTMTCSASSSVSFMYWYQQKPRSSPKPWIYLTSNLPSGVPARFSGSGSGTSYSLTISSMEAEDAATYYCQQWSSHPPTFGSGTKLEIK
As to B1, the “Minimum neutralizing concentration (CHO-K1 cells with PT toxin)” value in experiment [1] came to 1.6 µg/mL. In experiment [2], this molecule registered a Kd of under 1 pM, a koff of under 1e-07 s⁻¹ and a kon of 387000 M⁻¹ s⁻¹. Besides, the “Ab2 with Ab1/Ab2 without Ab1” value in experiment [3] was found to be 1.1%.

B2: 11E6 (antibody, V domains shown)
VH: EVKVVESGGGLVQPGGSLRLSCTTSGFTFTDYYVSWVRQPPGKALEWLGFIRNKVNGYTTEFSSSVKGRFTISRDNSQSILYLQMNTLRVEDSATYYCARVSYYGRGWYFDYWGQGTTLTVSS
VL: DIVMTQSTSSLSASLGDRVTISCRASQDIDNYLSWFQQKPDGTVKLLIYYTSRLHSGVPSRFSGSGSGTDYSLTISSLDQEDIATYFCQQGNTFPWTFGGGTKLEIK
As for B2, in experiment [1], the “Minimum neutralizing concentration (CHO-K1 cells with PT toxin)” value turned out to be 0.8 µg/mL. Further, in experiment [2], the Kd was under 1 pM, the koff is under 1e-07 s⁻¹ and the kon is 311000 M⁻¹ s⁻¹. In experiment [4], the “Ab2 with Ab1/Ab2 without Ab1” value came out at 0.2%.

(Values after patent US20230061378A1 (SUZHOU ALPHAMAB, published 2023).)
